Sequences and labels used below:
T1: human CD19, full length, on cells (human, UniProt P15391 20-556)
T1 construct: the endogenous CD19 of Raji cells is put under the same molecule (the cell type stands under assay); The entry holds the signal peptide; also called CHO-K1-human CD19; CHO-K1-human CD19-2C8
T1 sequence: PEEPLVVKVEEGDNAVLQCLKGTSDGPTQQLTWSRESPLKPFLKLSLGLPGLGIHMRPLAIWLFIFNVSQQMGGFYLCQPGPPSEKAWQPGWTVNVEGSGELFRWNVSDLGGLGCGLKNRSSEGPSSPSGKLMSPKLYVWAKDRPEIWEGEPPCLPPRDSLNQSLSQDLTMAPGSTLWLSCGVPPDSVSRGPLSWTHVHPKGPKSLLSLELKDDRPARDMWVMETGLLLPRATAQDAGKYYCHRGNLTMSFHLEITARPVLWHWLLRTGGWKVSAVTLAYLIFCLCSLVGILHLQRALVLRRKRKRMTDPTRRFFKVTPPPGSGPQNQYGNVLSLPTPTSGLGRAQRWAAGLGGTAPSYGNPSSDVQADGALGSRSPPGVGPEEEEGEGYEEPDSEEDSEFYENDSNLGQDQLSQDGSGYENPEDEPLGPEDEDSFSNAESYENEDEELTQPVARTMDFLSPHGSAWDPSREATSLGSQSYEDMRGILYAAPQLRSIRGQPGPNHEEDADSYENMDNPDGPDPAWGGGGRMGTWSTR

T2: murine CD19 protein (murine, UniProt P25918 19-287, limits assumed)
T2 construct: also called mouse CD19-his protein
T2 sequence (looked up): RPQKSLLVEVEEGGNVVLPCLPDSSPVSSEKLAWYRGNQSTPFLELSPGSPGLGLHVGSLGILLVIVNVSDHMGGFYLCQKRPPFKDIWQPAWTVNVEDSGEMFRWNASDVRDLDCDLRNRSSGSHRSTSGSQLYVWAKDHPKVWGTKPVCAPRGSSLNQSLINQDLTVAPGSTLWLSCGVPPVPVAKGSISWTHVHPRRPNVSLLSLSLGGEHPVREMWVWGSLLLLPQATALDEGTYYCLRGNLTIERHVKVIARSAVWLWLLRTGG

T3: human CD19 exon1-3-His protein (human, UniProt P15391 20-186)
T3 construct: Made in HEK293E cells, purified on nickel column; not shown: His tag
T3 sequence: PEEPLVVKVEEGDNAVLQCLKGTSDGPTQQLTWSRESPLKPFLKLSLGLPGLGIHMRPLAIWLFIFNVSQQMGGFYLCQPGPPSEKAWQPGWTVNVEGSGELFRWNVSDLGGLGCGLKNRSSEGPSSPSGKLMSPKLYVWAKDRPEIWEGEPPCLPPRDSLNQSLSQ

B1: FMC63.26-mIgG1 (antibody, V domains shown)
VH: EVTLKESGPVLVKPTETLTLTCTVSGFSLPDYGVSWIRQPPGKALEWLAVIWGSETTYYNSALKSRLTISKDTSKSQVVLTMTNMDPVDTATYYCAKHYYYGGSYAMDYWGQGTTVTVSS
VL: DIQMTQSPSSLSASVGDRVTITCRASQDISKYLNWYQQKPGGAVKLLIYHTSRLHSGVPSRFSGSGSGTDYTLTISSLQPEDFATYYCQQGNTLPYTFGGGTKVEIKR
notes: Humanized FMC63; also called FMC63-L2H6
B2: FMC63.27-mIgG1 (antibody, V domains shown)
VH: B1 VH with F27V, T73N
VL: B1 VL
notes: Humanized FMC63; also called FMC63-L2H7
B3: FMC63.25-mIgG1 (antibody, V domains shown)
VH: B1 VH with P30S
VL: B1 VL
notes: Humanized FMC63; also called FMC63-L2H5

Positions count from the first letter of the chain named.

One test addresses T1, human CD19, full length, on cells. As to the kind of experiment: FACS on CHO-K1-human CD19 cells. The source says:
(§1) The desired cells were expanded to a logarithmic growth phase in a T-75 cell culture flask. For adherent cells CHO-K1, the culture medium was removed by pipetting, and the cells were washed twice with a PBS buffer, digested with trypsin, and washed twice with a PBS buffer again after the digestion was stopped. For suspension cells Raji, the medium supernatant was discarded by direct centrifugation, and the cell pellet was washed twice with PBS. After cell counting of the cells obtained in the last step, the cell pellet was resuspended to 2×10⁶ cells/mL with a blocking solution [PBS+2% (w/w) BSA] and added into a 96-well FACS reaction plate at 50 μL/well. […] After the plate was centrifuged and washed 5 times with a PBS buffer, the results were assayed and analyzed by FACS (FACS Canto™, purchased from BD Biosciences). Data analysis was performed by software (CellQuest) to obtain the mean fluorescence intensity (MFI) of the cells. Then, analysis was performed by software (GraphPad Prism8), data were fitted, and EC₅₀ values were calculated.
The EC50 is the concentration giving half of the maximal effect. B1: the 50% effective concentration (EC50) was 1120 pM and the “maximum mean fluorescence intensity” value was 31500 MFI.

On to B2, for which the EC50 came to 1330 pM and the “maximum mean fluorescence intensity” value was determined as 29400 MFI.

Regarding B3, the midpoint of the response, the EC50, lay at 790 pM and the “maximum mean fluorescence intensity” value worked out at 33100 MFI.

The target in the next test is T2, murine CD19 protein. In words: ELISA, murine CD19 coated. Background: ELISA stands for enzyme-linked immunosorbent assay.
B1: the binding result is recorded as “no binding (tested: 100 nM)”.

Regarding B2, the binding result is “no binding (tested: 100 nM)”.

Turning to B3, the binding result is “no binding (tested: 100 nM)”.

The target in the next test is T1, human CD19, full length, on cells. In words: FACS on Raji cells.
Source text: as §1
On to B1, for which the response was half-maximal at 320 pM (EC50) and the “maximum mean fluorescence intensity” value amounted to 8500 MFI.

For B2, the EC50 was determined as 300 pM and the “maximum mean fluorescence intensity” value was found to be 7840 MFI.

Consider B3, for which the response was half-maximal at 330 pM (EC50) and the “maximum mean fluorescence intensity” value came out at 9170 MFI.

A further test has as its target monkey CD19-his protein (monkey). In words: ELISA, monkey CD19 coated. On the procedure:
After incubation for 2 h at 37° C., the plate was washed 3 times with PBS. […] After incubation for 1 h at 37° C., the plate was washed 5 times with PBS. A TMB substrate was added at 50 μL/well. After incubation at room temperature for 10 min, a stop solution (1.0 N HCl) was added at 50 μL/well. The OD450 nm values were read on an ELISA microplate reader (Multimode Plate Reader, EnSight, purchased from Perkin Elmer). […] The negative control antibody mIgG1 was an antibody against hen egg lysozyme, anti-hel-mIgG1 (purchased from Biointron, Cat. No. B118301), and the data in the table were OD450 nm values.
IgG control was mIgG1, S003-NB151-89 was a clone that is selected from a library constructed by peripheral blood collected from Alpaca immunized by human CD19-His and can bind to a monkey CD19-His protein, and was used as a positive control, and the data in the table were OD450 nm values.
For the molecule B1, the “OD450 at 0.0001 nM” value was found to be 0.05 OD450, the “OD450 at 0.001 nM” value came out at 0.05 OD450, the “OD450 at 0.01 nM” value is 0.05 OD450 and the “OD450 at 0.10 nM” value was determined as 0.05 OD450. Moreover, the “OD450 at 1.00 nM” value worked out at 0.05 OD450, the “OD450 at 10.00 nM” value turned out to be 0.06 OD450 and the “OD450 at 100.00 nM” value worked out at 0.1 OD450.

For the molecule B2, the “OD450 at 0.0001 nM” value is 0.05 OD450, the “OD450 at 0.001 nM” value came out at 0.05 OD450, the “OD450 at 0.01 nM” value came out at 0.05 OD450 and the “OD450 at 0.10 nM” value amounted to 0.05 OD450. For the same molecule, the “OD450 at 1.00 nM” value was determined as 0.05 OD450, the “OD450 at 10.00 nM” value amounted to 0.05 OD450 and the “OD450 at 100.00 nM” value came to 0.1 OD450.

With B3, the “OD450 at 0.0001 nM” value stood at 0.1 OD450, the “OD450 at 0.001 nM” value was 0.1 OD450, the “OD450 at 0.01 nM” value turned out to be 0.09 OD450 and the “OD450 at 0.10 nM” value turned out to be 0.08 OD450. Moreover, the “OD450 at 1.00 nM” value worked out at 0.08 OD450, the “OD450 at 10.00 nM” value was determined as 0.1 OD450 and the “OD450 at 100.00 nM” value stood at 0.12 OD450.

Another test deals with T3, human CD19 exon1-3-His protein. In words: ELISA on coated human CD19 exon1-3-His.
For B1, the binding result was “no binding (tested: 100 nM)”.

With B2, the binding result was “no binding (tested: 100 nM)”.

With B3, the binding result is given as “no binding (tested: 100 nM)”.
